# According to patent US20250218531A1 (ABSCI, published 2025):
# Residue numbers refer to the chain shown, from its start. Where “and” joins values, the source holds several entries; their conditions need not be identical. Equal values may be shown once.
# B1: Trastuzumab HCDR3 variant SRYGRGVYYYFDY (Fab, V domains shown)
# VH: EVQLVESGGGLVQPGGSLRLSCAASGFNIKDTYIHWVRQAPGKGLEWVARIYPTNGYTRYADSVKGRFTISADTSKNTAYLQMNSLRAEDTAVYYCSRYGRGVYYYFDYWGQGTLVTVSS
# VL: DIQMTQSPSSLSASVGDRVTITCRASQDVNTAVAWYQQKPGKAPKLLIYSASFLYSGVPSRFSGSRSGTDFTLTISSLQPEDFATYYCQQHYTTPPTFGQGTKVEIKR
# B2: Multi-step trastuzumab HCDR3 variant ARSGGSGYYYYDY (SEQ ID NO: 524) (Fab, V domains shown)
# VH: B1 VH with S97A, Y99S, R101G, G102S, V103G, F107Y
# VL: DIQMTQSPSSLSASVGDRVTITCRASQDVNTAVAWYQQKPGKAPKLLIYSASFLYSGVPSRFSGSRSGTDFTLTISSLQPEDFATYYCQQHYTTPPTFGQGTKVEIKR
# B3: Trastuzumab HCDR3 variant VRYPEVYGYYFDY (Fab, V domains shown)
# VH: B1 VH with S97V, G100P, R101E, G102V, V103Y, Y104G
# VL: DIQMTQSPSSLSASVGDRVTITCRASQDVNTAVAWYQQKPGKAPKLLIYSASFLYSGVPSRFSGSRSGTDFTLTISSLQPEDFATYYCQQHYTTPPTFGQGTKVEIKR
# B4: Trastuzumab HCDR3 variant TRWRWGYGYYFDF (Fab, V domains shown)
# VH: B1 VH with S97T, Y99W, G100R, R101W, V103Y, Y104G, Y109F
# VL: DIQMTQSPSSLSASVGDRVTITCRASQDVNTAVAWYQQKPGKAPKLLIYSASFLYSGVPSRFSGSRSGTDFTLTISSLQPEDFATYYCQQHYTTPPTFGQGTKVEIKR
# B5: Trastuzumab HCDR3 variant TRYRGAHGYYFDY (Fab, V domains shown)
# VH: B1 VH with S97T, G100R, R101G, G102A, V103H, Y104G
# VL: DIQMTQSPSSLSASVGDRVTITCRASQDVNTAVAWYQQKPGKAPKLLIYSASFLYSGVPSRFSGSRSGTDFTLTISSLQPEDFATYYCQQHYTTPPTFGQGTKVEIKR
# B6: De novo trastuzumab HCDR1|2|3 variant GFNIKDYY / IYPSRGYT / ARHGSEGRYTMDV (Fab, V domains shown)
# VH: EVQLVESGGGLVQPGGSLRLSCAASGFNIKDYYIHWVRQAPGKGLEWVARIYPSRGYTRYADSVKGRFTISADTSKNTAYLQMNSLRAEDTAVYYCARHGSEGRYTMDVWGQGTLVTVSS
# VL: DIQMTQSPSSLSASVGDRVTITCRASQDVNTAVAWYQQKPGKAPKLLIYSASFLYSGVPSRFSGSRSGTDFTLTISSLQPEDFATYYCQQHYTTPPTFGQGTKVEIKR
# notes: also called AI Design 3
# B7: De novo trastuzumab HCDR1|2|3 variant GFNIKDTW / IDPANGYT / ARVGGRGYYYYDY (Fab, V domains shown)
# VH: B1 VH with Y33W, Y52D, T54A, S97A, Y99V, R101G, G102R, V103G, F107Y
# VL: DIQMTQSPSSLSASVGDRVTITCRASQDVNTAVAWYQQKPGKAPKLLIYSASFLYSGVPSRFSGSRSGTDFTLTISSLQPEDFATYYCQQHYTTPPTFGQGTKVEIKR
# notes: also called AI Design 4
# B8: Trastuzumab HCDR3 variant SRYYDYNYYFMDY (Fab, V domains shown)
# VH: B1 VH with G100Y, R101D, G102Y, V103N, Y106F, F107M
# VL: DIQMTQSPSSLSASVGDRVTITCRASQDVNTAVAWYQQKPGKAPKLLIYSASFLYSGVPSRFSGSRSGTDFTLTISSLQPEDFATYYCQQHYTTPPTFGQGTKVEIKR
# B9: De novo trastuzumab HCDR1|2|3 variant GFNFKDTY / IYPANGYT / ASDGGSYSYAFDY (Fab, V domains shown)
# VH: B1 VH with I29F, T54A, S97A, R98S, Y99D, R101G, G102S, V103Y, Y104S, Y106A
# VL: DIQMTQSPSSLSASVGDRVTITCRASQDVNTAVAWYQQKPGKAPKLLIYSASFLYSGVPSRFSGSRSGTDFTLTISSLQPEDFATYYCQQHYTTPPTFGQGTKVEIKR
# notes: also called AI Design 5
# B10: Trastuzumab HCDR3 variant TRYYGGYGYYFDY (Fab, V domains shown)
# VH: B1 VH with S97T, G100Y, R101G, V103Y, Y104G
# VL: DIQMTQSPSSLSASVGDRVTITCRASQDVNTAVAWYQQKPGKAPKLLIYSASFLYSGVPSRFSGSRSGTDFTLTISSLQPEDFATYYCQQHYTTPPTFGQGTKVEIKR
# B11: Trastuzumab HCDR3 variant SYPDFGYYVYFAY (Fab, V domains shown)
# VH: B1 VH with R98Y, Y99P, G100D, R101F, V103Y, Y105V, D108A
# VL: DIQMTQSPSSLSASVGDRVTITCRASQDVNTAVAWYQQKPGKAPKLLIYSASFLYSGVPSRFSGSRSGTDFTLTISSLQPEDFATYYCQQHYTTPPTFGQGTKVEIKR
# B12: De novo trastuzumab HCDR1|2|3 variant GFNISDYY / IYPSSGYT / ARDGGVGSYSMDV (Fab, V domains shown)
# VH: B6 VH with K30S, R55S, H99D, S101G, E102V, R104S, T106S
# VL: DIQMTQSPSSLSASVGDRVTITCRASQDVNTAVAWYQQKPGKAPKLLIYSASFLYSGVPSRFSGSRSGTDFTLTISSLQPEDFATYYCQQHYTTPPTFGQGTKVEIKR
# notes: also called AI Design 2
# B13: Trastuzumab HCDR3 variant TRYYGDGYYDFDY (Fab, V domains shown)
# VH: B1 VH with S97T, G100Y, R101G, G102D, V103G, Y106D
# VL: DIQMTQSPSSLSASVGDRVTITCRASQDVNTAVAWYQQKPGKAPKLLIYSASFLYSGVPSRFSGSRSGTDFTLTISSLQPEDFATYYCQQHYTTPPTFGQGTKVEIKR
# B14: Trastuzumab HCDR3 variant VRGYGYNFYYHGFSY (Fab, V domains shown)
# VH: EVQLVESGGGLVQPGGSLRLSCAASGFNIKDTYIHWVRQAPGKGLEWVARIYPTNGYTRYADSVKGRFTISADTSKNTAYLQMNSLRAEDTAVYYCVRGYGYNFYYHGFSYWGQGTLVTVSS
# VL: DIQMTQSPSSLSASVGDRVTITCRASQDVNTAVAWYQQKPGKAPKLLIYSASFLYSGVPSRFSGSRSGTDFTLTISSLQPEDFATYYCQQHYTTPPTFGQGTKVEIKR
# B15: Trastuzumab HCDR3 variant ARSGGHGVNGHWRSF (Fab, V domains shown)
# VH: EVQLVESGGGLVQPGGSLRLSCAASGFNIKDTYIHWVRQAPGKGLEWVARIYPTNGYTRYADSVKGRFTISADTSKNTAYLQMNSLRAEDTAVYYCARSGGHGVNGHWRSFWGQGTLVTVSS
# VL: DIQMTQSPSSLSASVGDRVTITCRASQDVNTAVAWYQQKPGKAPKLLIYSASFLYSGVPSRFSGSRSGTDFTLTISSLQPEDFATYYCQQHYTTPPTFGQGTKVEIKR
# B16: Trastuzumab HCDR3 variant AYTGAPHGGYHYYAY (Fab, V domains shown)
# VH: EVQLVESGGGLVQPGGSLRLSCAASGFNIKDTYIHWVRQAPGKGLEWVARIYPTNGYTRYADSVKGRFTISADTSKNTAYLQMNSLRAEDTAVYYCAYTGAPHGGYHYYAYWGQGTLVTVSS
# VL: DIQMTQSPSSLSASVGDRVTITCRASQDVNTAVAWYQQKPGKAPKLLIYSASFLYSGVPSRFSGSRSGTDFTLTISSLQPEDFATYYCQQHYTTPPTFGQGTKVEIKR
# B17: Trastuzumab HCDR3 variant ARGGYYGYWYYFDY (Fab, V domains shown)
# VH: EVQLVESGGGLVQPGGSLRLSCAASGFNIKDTYIHWVRQAPGKGLEWVARIYPTNGYTRYADSVKGRFTISADTSKNTAYLQMNSLRAEDTAVYYCARGGYYGYWYYFDYWGQGTLVTVSS
# VL: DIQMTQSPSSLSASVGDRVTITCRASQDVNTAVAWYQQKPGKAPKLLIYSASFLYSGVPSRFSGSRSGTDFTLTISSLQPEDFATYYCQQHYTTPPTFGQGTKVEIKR
# B18: Trastuzumab HCDR3 variant ARSHYGYYDYYTDF (Fab, V domains shown)
# VH: B17 VH with G99S, G100H, Y102G, G103Y, W105D, F108T, Y110F
# VL: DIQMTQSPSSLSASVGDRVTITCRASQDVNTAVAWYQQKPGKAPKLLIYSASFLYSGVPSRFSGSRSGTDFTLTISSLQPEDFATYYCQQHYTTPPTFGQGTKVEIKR
# B19: Trastuzumab HCDR3 variant ARYRGGYGGYVFDP (Fab, V domains shown)
# VH: B17 VH with G99Y, G100R, Y101G, Y102G, G103Y, Y104G, W105G, Y107V, Y110P
# VL: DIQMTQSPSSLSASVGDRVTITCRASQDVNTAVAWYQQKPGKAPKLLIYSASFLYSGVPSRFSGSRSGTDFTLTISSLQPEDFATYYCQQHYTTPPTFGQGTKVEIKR
# B20: Trastuzumab HCDR3 variant ARLAFDSVSFYSDY (Fab, V domains shown)
# VH: B17 VH with G99L, G100A, Y101F, Y102D, G103S, Y104V, W105S, Y106F, F108S
# VL: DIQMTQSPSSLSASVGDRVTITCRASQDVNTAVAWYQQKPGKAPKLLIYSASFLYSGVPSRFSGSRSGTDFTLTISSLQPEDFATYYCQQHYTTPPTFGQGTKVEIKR
# B21: Trastuzumab HCDR3 variant ATWPHINTRIYAFDP (Fab, V domains shown)
# VH: EVQLVESGGGLVQPGGSLRLSCAASGFNIKDTYIHWVRQAPGKGLEWVARIYPTNGYTRYADSVKGRFTISADTSKNTAYLQMNSLRAEDTAVYYCATWPHINTRIYAFDPWGQGTLVTVSS
# VL: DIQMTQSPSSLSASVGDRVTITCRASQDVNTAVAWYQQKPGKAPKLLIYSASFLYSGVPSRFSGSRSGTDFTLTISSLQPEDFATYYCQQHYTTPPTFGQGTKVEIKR
# B22: Trastuzumab HCDR3 variant ARDGHYFTYDY (Fab, V domains shown)
# VH: EVQLVESGGGLVQPGGSLRLSCAASGFNIKDTYIHWVRQAPGKGLEWVARIYPTNGYTRYADSVKGRFTISADTSKNTAYLQMNSLRAEDTAVYYCARDGHYFTYDYWGQGTLVTVSS
# VL: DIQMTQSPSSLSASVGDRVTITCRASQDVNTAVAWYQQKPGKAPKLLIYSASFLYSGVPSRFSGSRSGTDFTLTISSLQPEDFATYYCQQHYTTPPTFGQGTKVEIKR
# B23: Trastuzumab HCDR3 variant AKYVLVGSYGV (Fab, V domains shown)
# VH: B22 VH with R98K, D99Y, G100V, H101L, Y102V, F103G, T104S, D106G, Y107V
# VL: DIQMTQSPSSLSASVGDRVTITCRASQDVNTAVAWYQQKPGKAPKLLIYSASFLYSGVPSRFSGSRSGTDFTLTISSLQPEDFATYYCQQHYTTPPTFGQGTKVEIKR
# B24: Trastuzumab HCDR3 variant AINLRGYWMDN (Fab, V domains shown)
# VH: B22 VH with R98I, D99N, G100L, H101R, Y102G, F103Y, T104W, Y105M, Y107N
# VL: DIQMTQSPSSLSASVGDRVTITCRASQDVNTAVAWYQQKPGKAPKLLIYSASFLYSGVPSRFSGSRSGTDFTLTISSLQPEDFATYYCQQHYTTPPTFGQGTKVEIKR
# B25: Trastuzumab HCDR3 variant AAWYSTYYFDY (Fab, V domains shown)
# VH: B22 VH with R98A, D99W, G100Y, H101S, Y102T, F103Y, T104Y, Y105F
# VL: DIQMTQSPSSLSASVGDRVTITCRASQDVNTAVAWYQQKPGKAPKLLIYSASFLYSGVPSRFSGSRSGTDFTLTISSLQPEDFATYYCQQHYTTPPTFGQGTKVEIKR
# B26: Trastuzumab HCDR3 variant AKYVASGYSLA (Fab, V domains shown)
# VH: B22 VH with R98K, D99Y, G100V, H101A, Y102S, F103G, T104Y, Y105S, D106L, Y107A
# VL: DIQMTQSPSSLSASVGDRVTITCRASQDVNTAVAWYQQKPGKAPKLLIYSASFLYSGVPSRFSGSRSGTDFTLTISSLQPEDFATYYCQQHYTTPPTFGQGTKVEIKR
# B27: Trastuzumab HCDR3 variant ARYSYYRYYFE (Fab, V domains shown)
# VH: B22 VH with D99Y, G100S, H101Y, F103R, T104Y, D106F, Y107E
# VL: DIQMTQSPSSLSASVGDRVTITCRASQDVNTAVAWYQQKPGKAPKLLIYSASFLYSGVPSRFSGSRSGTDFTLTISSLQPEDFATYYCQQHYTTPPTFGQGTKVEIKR
# B28: Trastuzumab HCDR3 variant AADGYRGTYSF (Fab, V domains shown)
# VH: B22 VH with R98A, H101Y, Y102R, F103G, D106S, Y107F
# VL: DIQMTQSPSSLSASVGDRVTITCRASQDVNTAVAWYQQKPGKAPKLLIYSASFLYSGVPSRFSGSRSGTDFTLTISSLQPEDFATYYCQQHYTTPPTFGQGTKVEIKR
# B29: Trastuzumab HCDR3 variant ATGYSYLRFYD (Fab, V domains shown)
# VH: B22 VH with R98T, D99G, G100Y, H101S, F103L, T104R, Y105F, D106Y, Y107D
# VL: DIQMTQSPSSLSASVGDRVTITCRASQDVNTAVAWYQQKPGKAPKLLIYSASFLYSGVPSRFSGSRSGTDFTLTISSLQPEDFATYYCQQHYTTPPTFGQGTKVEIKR
# B30: Trastuzumab HCDR3 variant ASYAGYSPFDY (Fab, V domains shown)
# VH: B22 VH with R98S, D99Y, G100A, H101G, F103S, T104P, Y105F
# VL: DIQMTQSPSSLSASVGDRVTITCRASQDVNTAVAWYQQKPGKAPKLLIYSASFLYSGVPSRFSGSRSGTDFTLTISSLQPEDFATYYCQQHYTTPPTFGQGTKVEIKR
# B31: Trastuzumab HCDR3 variant ARFDLVGAFDY (Fab, V domains shown)
# VH: B22 VH with D99F, G100D, H101L, Y102V, F103G, T104A, Y105F
# VL: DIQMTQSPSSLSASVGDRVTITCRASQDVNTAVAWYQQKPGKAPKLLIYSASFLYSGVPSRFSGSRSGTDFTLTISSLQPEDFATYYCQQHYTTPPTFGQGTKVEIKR
# B32: Trastuzumab HCDR3 variant ATGYSYLRYYD (Fab, V domains shown)
# VH: B22 VH with R98T, D99G, G100Y, H101S, F103L, T104R, D106Y, Y107D
# VL: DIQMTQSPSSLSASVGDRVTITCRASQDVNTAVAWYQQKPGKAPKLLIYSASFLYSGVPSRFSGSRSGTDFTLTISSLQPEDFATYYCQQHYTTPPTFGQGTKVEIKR
# B33: Trastuzumab HCDR3 variant AFPWAGHYMER (Fab, V domains shown)
# VH: B22 VH with R98F, D99P, G100W, H101A, Y102G, F103H, T104Y, Y105M, D106E, Y107R
# VL: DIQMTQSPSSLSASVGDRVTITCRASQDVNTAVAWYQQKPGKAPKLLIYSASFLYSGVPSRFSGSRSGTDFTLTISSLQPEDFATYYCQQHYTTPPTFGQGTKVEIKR
# What was measured:
# [1] = target: human epidermal growth factor receptor 2 (HER2) extracellular domain (human, UniProt P04626 23-629); experiment: SPR
# [2] = target: human epidermal growth factor receptor 2 (HER2) extracellular domain (human, UniProt P04626 23-629); experiment: SPR, Fab format
Binder,Kd [1],log(KD (M)) [1],Kd [2] [nM],log(KD (M)) [2] [log M]
B1,79.7 nM,-7.1 log(M),,
B2,,,1830,-5.74
B3,36.3 nM,-7.44 log(M),,
B4,78.1 nM,-7.11 log(M),,
B5,35.5 nM,-7.45 log(M),,
B6,,,192,-6.72
B7,,,394,-6.4
B8,141 nM,-6.85 log(M),,
B9,,,642,-6.19
B10,41.6 nM,-7.38 log(M),,
B11,36.8 nM,-7.43 log(M),,
B12,,,1320,-5.88
B13,29.2 nM,-7.53 log(M),,
B14,147 nM and 146 nM,-6.83 log(M),,
B15,49.8 nM,-7.3 log(M),,
B16,49.4 nM,-7.31 log(M),,
B17,51.2 nM,-7.29 log(M),,

Binder,Kd [1],log(KD (M)) [1],Kd [2] [nM],log(KD (M)) [2] [log M]
B18,116 nM,-6.94 log(M),,
B19,120 nM,-6.92 log(M),,
B20,187 nM,-6.73 log(M),,
B21,117 nM,-6.93 log(M),,
B22,45.1 nM,-7.35 log(M),,
B23,50.2 nM and 50.1 nM,-7.3 log(M),,
B24,41.5 nM,-7.38 log(M),,
B25,49.4 nM,-7.31 log(M),,
B26,109 nM,-6.96 log(M),,
B27,74.6 nM,-7.13 log(M),,
B28,79.2 nM,-7.1 log(M),,
B29,164 nM,-6.79 log(M),,
B30,202 nM,-6.7 log(M),,
B31,151 nM,-6.82 log(M),,
B32,273 nM,-6.56 log(M),,
B33,95 nM,-7.02 log(M),,
